Assay results taken from the supplement of paper PMC9116672.
± gives the standard deviation of the averaged measurements or the uncertainty stated by the source.

Key:
[1] = duplex melting temperature (HRM, EvaGreen); higher = more stable duplex
Method: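 Listed DNA strand annealed 1:1 with its complementary strand (95 °C 5 min, 0.1 °C/s to 20 °C). Melted in 1x NNE buffer (500 mM NaCl, 10 mM Na2HPO4, 1 mM EDTA, pH 7.0) with 1x EvaGreen on a LightCycler96 (37 to 97 °C, 0.1 °C/s). Tm is the peak of -dF/dT at the stated total duplex concentration; 4 replicates are averaged. PS oligos are non-stereospecific (Rp/Sp mixtures).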

[2] = duplex formation free energy ΔG50 (Van't Hoff fit of HRM Tm); higher = less stable duplex; conditions: temperature for dG: 50 °C, NaCl: 500 mM (unadjusted)
Method: (§1)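 Duplex of the listed DNA strand with its complement, in 1x NNE buffer (500 mM NaCl, pH 7.0) with 1x EvaGreen. ΔH and ΔS come from a Van't Hoff linear fit of 1/Tm against ln(CT/4) over 1-20 uM, using HRM Tm values.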

[3] = duplex formation enthalpy ΔH (Van't Hoff fit of HRM Tm); higher = less exothermic duplex formation; conditions: temperature for dG: 50 °C, NaCl: 500 mM (unadjusted)
Method: as §1

[4] = duplex formation entropy ΔS (Van't Hoff fit of HRM Tm); higher = smaller entropy loss on duplex formation; conditions: temperature for dG: 50 °C, NaCl: 500 mM (unadjusted)
Method: as §1

[5] = duplex concentration 1 µM, backbone: PS-PO (listed strand fully phosphorothioate, complement phosphodiester)
[6] = duplex concentration 1 µM, backbone: PS-PS (both strands fully phosphorothioate)
[7] = duplex concentration 2.5 µM, backbone: PO-PO (both strands phosphodiester DNA)
[8] = duplex concentration 2.5 µM, backbone: PS-PO (listed strand fully phosphorothioate, complement phosphodiester)
[9] = duplex concentration 2.5 µM, backbone: PS-PS (both strands fully phosphorothioate)
[10] = duplex concentration 5 µM, backbone: PO-PO (both strands phosphodiester DNA)
[11] = duplex concentration 5 µM, backbone: PS-PO (listed strand fully phosphorothioate, complement phosphodiester)
[12] = duplex concentration 5 µM, backbone: PS-PS (both strands fully phosphorothioate)
[13] = duplex concentration 7.5 µM, backbone: PO-PO (both strands phosphodiester DNA)
[14] = duplex concentration 7.5 µM, backbone: PS-PO (listed strand fully phosphorothioate, complement phosphodiester)
[15] = duplex concentration 7.5 µM, backbone: PS-PS (both strands fully phosphorothioate)
[16] = duplex concentration 10 µM, backbone: PO-PO (both strands phosphodiester DNA)
[17] = duplex concentration 10 µM, backbone: PS-PO (listed strand fully phosphorothioate, complement phosphodiester)
[18] = duplex concentration 10 µM, backbone: PS-PS (both strands fully phosphorothioate)
[19] = duplex concentration 15 µM, backbone: PO-PO (both strands phosphodiester DNA)
[20] = duplex concentration 15 µM, backbone: PS-PO (listed strand fully phosphorothioate, complement phosphodiester)
[21] = duplex concentration 15 µM, backbone: PS-PS (both strands fully phosphorothioate)
[22] = duplex concentration 20 µM, backbone: PO-PO (both strands phosphodiester DNA)
[23] = duplex concentration 20 µM, backbone: PS-PO (listed strand fully phosphorothioate, complement phosphodiester)
[24] = duplex concentration 20 µM, backbone: PS-PS (both strands fully phosphorothioate)
[25] = backbone: PO-PO (both strands phosphodiester DNA)
[26] = backbone: PS-PO (listed strand fully phosphorothioate, complement phosphodiester)
[27] = backbone: PS-PS (both strands fully phosphorothioate)
[28] = duplex concentration 1 µM, backbone: PO-PO (both strands phosphodiester DNA)

GCGGTTGGTGGCCAAC
duplex melting temperature [1, 5]: 63.49 ± 0.42 °C
duplex melting temperature [1, 6]: 56.4 ± 0.12 °C
duplex melting temperature [1, 7]: 72.845 ± 0.0061 °C
duplex melting temperature [1, 8]: 65.54 ± 0.56 °C
duplex melting temperature [1, 9]: 59.65 ± 0.13 °C
duplex melting temperature [1, 10]: 74.66 ± 0.1 °C
duplex melting temperature [1, 11]: 67.67 ± 0.49 °C
duplex melting temperature [1, 12]: 61.64 ± 0.16 °C
duplex melting temperature [1, 13]: 75.96 ± 0.21 °C
duplex melting temperature [1, 14]: 68.96 ± 0.29 °C
duplex melting temperature [1, 15]: 62.663 ± 0.048 °C
duplex melting temperature [1, 16]: 76.8 ± 0.26 °C
duplex melting temperature [1, 17]: 69.81 ± 0.25 °C
duplex melting temperature [1, 18]: 63.516 ± 0.06 °C
duplex melting temperature [1, 19]: 77.93 ± 0.21 °C
duplex melting temperature [1, 20]: 71.07 ± 0.17 °C
duplex melting temperature [1, 21]: 64.64 ± 0.11 °C
duplex melting temperature [1, 22]: 78.54 ± 0.17 °C
duplex melting temperature [1, 23]: 71.91 ± 0.09 °C
duplex melting temperature [1, 24]: 65.39 ± 0.087 °C
duplex formation free energy ΔG50 [2, 25]: -14.9 ± 0.28 kcal/mol
duplex formation free energy ΔG50 [2, 26]: -12.9 ± 0.13 kcal/mol
duplex formation free energy ΔG50 [2, 27]: -11.29 ± 0.089 kcal/mol
duplex formation enthalpy ΔH [3, 25]: -87 ± 3.6 kcal/mol
duplex formation enthalpy ΔH [3, 26]: -80.6 ± 2.4 kcal/mol
duplex formation enthalpy ΔH [3, 27]: -75.1 ± 2.4 kcal/mol
duplex formation entropy ΔS [4, 25]: -223 ± 10 cal/mol/K
duplex formation entropy ΔS [4, 26]: -209 ± 7.1 cal/mol/K
duplex formation entropy ΔS [4, 27]: -197 ± 7.2 cal/mol/K

TGTCGCACCCTACTA
duplex melting temperature [1, 28]: 62.8 ± 2.6 °C
duplex melting temperature [1, 6]: 49.8 ± 0.68 °C
duplex melting temperature [1, 7]: 66.1 °C
duplex melting temperature [1, 8]: 59.14 ± 0.13 °C
duplex melting temperature [1, 9]: 53.99 ± 0.17 °C
duplex melting temperature [1, 10]: 68.24 ± 0.43 °C
duplex melting temperature [1, 11]: 61.72 ± 0.17 °C
duplex melting temperature [1, 12]: 56.51 ± 0.21 °C
duplex melting temperature [1, 13]: 69.66 ± 0.3 °C
duplex melting temperature [1, 14]: 62.92 ± 0.17 °C
duplex melting temperature [1, 15]: 57.65 ± 0.22 °C
duplex melting temperature [1, 16]: 71.02 ± 0.2 °C
duplex melting temperature [1, 17]: 64.01 ± 0.12 °C
duplex melting temperature [1, 18]: 58.5 ± 0.23 °C
duplex melting temperature [1, 19]: 72.66 ± 0.19 °C
duplex melting temperature [1, 20]: 65.449 ± 0.05 °C
duplex melting temperature [1, 21]: 59.67 ± 0.14 °C
duplex melting temperature [1, 22]: 73.62 ± 0.15 °C
duplex melting temperature [1, 23]: 66.44 ± 0.098 °C
duplex melting temperature [1, 24]: 60.75 ± 0.17 °C
duplex formation free energy ΔG50 [2, 25]: -12.1 ± 0.25 kcal/mol
duplex formation free energy ΔG50 [2, 26]: -10.95 ± 0.05 kcal/mol
duplex formation free energy ΔG50 [2, 27]: -9.838 ± 0.072 kcal/mol
duplex formation enthalpy ΔH [3, 25]: -63.3 ± 4.2 kcal/mol
duplex formation enthalpy ΔH [3, 26]: -64.2 ± 1.2 kcal/mol
duplex formation enthalpy ΔH [3, 27]: -60.7 ± 3.1 kcal/mol
duplex formation entropy ΔS [4, 25]: -158 ± 12 cal/mol/K
duplex formation entropy ΔS [4, 26]: -165 ± 3.6 cal/mol/K
duplex formation entropy ΔS [4, 27]: -157 ± 9.5 cal/mol/K

CCACTAGCGGCGCCGTT
duplex melting temperature [1, 5]: 67.57 ± 0.56 °C
duplex melting temperature [1, 6]: 62.65 ± 0.14 °C
duplex melting temperature [1, 7]: 78.31 ± 0.24 °C
duplex melting temperature [1, 8]: 70.82 ± 0.38 °C
duplex melting temperature [1, 9]: 65.52 ± 0.13 °C
duplex melting temperature [1, 10]: 80.05 ± 0.14 °C
duplex melting temperature [1, 11]: 73 ± 0.26 °C
duplex melting temperature [1, 12]: 67.54 ± 0.18 °C
duplex melting temperature [1, 13]: 81.18 ± 0.29 °C
duplex melting temperature [1, 14]: 74.33 ± 0.2 °C
duplex melting temperature [1, 15]: 68.59 ± 0.13 °C
duplex melting temperature [1, 16]: 81.87 ± 0.19 °C
duplex melting temperature [1, 17]: 75.285 ± 0.053 °C
duplex melting temperature [1, 18]: 69.501 ± 0.06 °C
duplex melting temperature [1, 19]: 83.03 ± 0.12 °C
duplex melting temperature [1, 20]: 76.37 ± 0.18 °C
duplex melting temperature [1, 21]: 70.49 ± 0.094 °C
duplex melting temperature [1, 22]: 83.58 ± 0.28 °C
duplex melting temperature [1, 23]: 77.3 ± 0.13 °C
duplex melting temperature [1, 24]: 71.36 ± 0.16 °C
duplex formation free energy ΔG50 [2, 25]: -17 ± 0.36 kcal/mol
duplex formation free energy ΔG50 [2, 26]: -13.7 ± 0.17 kcal/mol
duplex formation free energy ΔG50 [2, 27]: -12.8 ± 0.097 kcal/mol
duplex formation enthalpy ΔH [3, 25]: -97 ± 4 kcal/mol
duplex formation enthalpy ΔH [3, 26]: -75.1 ± 2.5 kcal/mol
duplex formation enthalpy ΔH [3, 27]: -79.8 ± 1.8 kcal/mol
duplex formation entropy ΔS [4, 25]: -247 ± 11 cal/mol/K
duplex formation entropy ΔS [4, 26]: -190 ± 7.2 cal/mol/K
duplex formation entropy ΔS [4, 27]: -207 ± 5.3 cal/mol/K

GATTGTATCATCGACATCACACTACC
duplex melting temperature [1, 28]: 73.69 ± 0.2 °C
duplex melting temperature [1, 5]: 65.7 ± 0.68 °C
duplex melting temperature [1, 6]: 56.3 ± 0.93 °C
duplex melting temperature [1, 7]: 74.91 ± 0.39 °C
duplex melting temperature [1, 8]: 67.05 ± 0.59 °C
duplex melting temperature [1, 9]: 58.43 ± 0.52 °C
duplex melting temperature [1, 10]: 76.04 ± 0.6 °C
duplex melting temperature [1, 11]: 68.37 ± 0.47 °C
duplex melting temperature [1, 12]: 59.81 ± 0.47 °C
duplex melting temperature [1, 13]: 76.92 ± 0.26 °C
duplex melting temperature [1, 14]: 68.77 ± 0.45 °C
duplex melting temperature [1, 15]: 60.92 ± 0.21 °C
duplex melting temperature [1, 16]: 77.78 ± 0.12 °C
duplex melting temperature [1, 17]: 69.57 ± 0.28 °C
duplex melting temperature [1, 18]: 61.49 ± 0.14 °C
duplex melting temperature [1, 19]: 78.7 ± 0.1 °C
duplex melting temperature [1, 20]: 70.36 ± 0.14 °C
duplex melting temperature [1, 21]: 62.51 ± 0.2 °C
duplex melting temperature [1, 22]: 79.317 ± 0.061 °C
duplex melting temperature [1, 23]: 70.75 ± 0.1 °C
duplex melting temperature [1, 24]: 63.05 ± 0.085 °C
duplex formation free energy ΔG50 [2, 25]: -18.3 ± 0.7 kcal/mol
duplex formation free energy ΔG50 [2, 26]: -16.1 ± 0.27 kcal/mol
duplex formation free energy ΔG50 [2, 27]: -11.7 ± 0.069 kcal/mol
duplex formation enthalpy ΔH [3, 25]: -127 ± 9.1 kcal/mol
duplex formation enthalpy ΔH [3, 26]: -137 ± 4.9 kcal/mol
duplex formation enthalpy ΔH [3, 27]: -99.2 ± 2.2 kcal/mol
duplex formation entropy ΔS [4, 25]: -336 ± 26 cal/mol/K
duplex formation entropy ΔS [4, 26]: -375 ± 14 cal/mol/K
duplex formation entropy ΔS [4, 27]: -271 ± 6.5 cal/mol/K
